From US20230158180A1 (SLOAN KETTERING INSTITUTE FOR CANCER RESEARCH, published 2023)
Values belong to the molecule of their own block, whether it stands above or below them. Non-standard residues stand in square brackets, D forms with d. Groups on a side chain read outwards from the residue. *: point of attachment. Cy5 silica nanoparticle = Cy5 dye-containing core-shell silica nanoparticle (~7 nm); PEG = not defined here; 124I = [124I]*

Key:
[1] = biological target: melanocortin-1 receptor (MC1R) on murine B16/F1 and B16F10 melanoma cells (mouse) (UniProt Q01727); assay: same type of competitive binding assay (given for reference)
[2] = biological target: melanocortin-1 receptor (MC1R) on murine B16/F1 and B16F10 melanoma cells (mouse) (UniProt Q01727); assay: competitive binding against ^125I-NDP, cultured B16/F1 melanoma cells
[3] = biological target: melanocortin-1 receptor (MC1R) on human M21 melanoma cells (human) (UniProt Q01726); assay: flow cytometry dose response, M21 melanoma cells
[4] = biological target: melanocortin-1 receptor (MC1R) on murine B16/F1 and B16F10 melanoma cells (mouse) (UniProt Q01727); assay: flow cytometry dose response, B16F10 melanoma cells
[5] = biological target: T1, αvβ3 integrin receptor (human, on M21 melanoma cells and HUVEC cells) (human, UniProt P06756 31-1048; P05106 27-788); assay: competitive binding, gamma counting, M21 cells
T1 construct: whole, on cells; also called integrin αvβ3 receptor
Procedure: Nonspecific binding was determined in the presence of a 1000-fold excess of cRGD (Peptides International, Louisville, Ky.). Scatchard plots of the binding data were generated and analyzed using linear regression analyses (Microsoft Excel 2007) to derive receptor-binding parameters (Kd, Bmax, IC50).
To examine in vitro binding affinity and specificity of ¹²⁴I-cRGDY-PEG-dots and ¹²⁴I-PEGdots to tumor and vascular endothelial surfaces, αᵥβ₃ integrin-overexpressing (M21) and nonexpressing (M21L) melanoma and human umbilical vein endothelial (HUVECs) cell lines were used. Highly specific linear and saturable binding of the cRGDY-PEG-dots was observed over a range of particle concentrations (0 to 8 ng/ml) and incubation times (up to 5-hrs), with maximum differential binding at 4-hr and ˜2.0 ng/ml particle concentration (data not shown) using flow cytometry. Receptor-binding specificity of ¹²⁴I-cRGDY-PEG dots was tested using γ-counting methods after initially incubating M21 cells with excess non-radiolabeled cRGD and then adding various concentrations of the radiolabeled targeted probe (FIG. 8A). […] Based on the Bmax value, the αᵥβ₃ integrin receptor density was estimated to be […] per M21 cell, in reasonable agreement with the previously published estimate of 5.6×10⁴ for this cell line. Cressman, et al., Binding and uptake of RGD-containing ligands to cellular αᵥβ₃ integrins. […]

[6] = biological target: T1, αvβ3 integrin receptor (human, on M21 …); assay: Scatchard analysis, gamma counting, M21 cells
Procedure: To assay particle binding and specificity for M21 cells, 24-well plates were coated with 10 μg/ml collagen type I (BD Biosciences, Bedford, Mass.) in phosphate buffered saline (PBS) and incubated (37° C., 30 min). M21 cells (3.0-4.0×10^5 cells/well) were grown to confluency and washed with RPMI 1640 media/0.5% bovine serum albumin (BSA). ¹²⁴I-cRGD-PEG-nanoparticles (0-4.0 ng/ml) were added to wells and cells incubated (25° C., 4 hours), washed with RPMI 1640 media/0.5% BSA, and dissolved in 0.2 M NaOH. […] Nonspecific binding was determined in the presence of a 1000-fold excess of cRGD (Peptides International, Louisville, Ky.). Scatchard plots of the binding data were generated and analyzed using linear regression analyses (Microsoft Excel 2007) to derive receptor-binding parameters (Kd, Bmax, IC50).
To examine in vitro binding affinity and specificity of ¹²⁴I-cRGDY-PEG-dots and ¹²⁴I-PEGdots to tumor and vascular endothelial surfaces, αᵥβ₃ integrin-overexpressing (M21) and nonexpressing (M21L) melanoma and human umbilical vein endothelial (HUVECs) cell lines were used. Highly specific linear and saturable binding of the cRGDY-PEG-dots was observed over a range of particle concentrations (0 to 8 ng/ml) and incubation times (up to 5-hrs), with maximum differential binding at 4-hr and ˜2.0 ng/ml particle concentration (data not shown) using flow cytometry. […]

[7] = biological target: T1, αvβ3 integrin receptor (human, on M21 …); assay: cell-based or functional assay

T1 sequence (P06756 31-1048, chain 1 of 2): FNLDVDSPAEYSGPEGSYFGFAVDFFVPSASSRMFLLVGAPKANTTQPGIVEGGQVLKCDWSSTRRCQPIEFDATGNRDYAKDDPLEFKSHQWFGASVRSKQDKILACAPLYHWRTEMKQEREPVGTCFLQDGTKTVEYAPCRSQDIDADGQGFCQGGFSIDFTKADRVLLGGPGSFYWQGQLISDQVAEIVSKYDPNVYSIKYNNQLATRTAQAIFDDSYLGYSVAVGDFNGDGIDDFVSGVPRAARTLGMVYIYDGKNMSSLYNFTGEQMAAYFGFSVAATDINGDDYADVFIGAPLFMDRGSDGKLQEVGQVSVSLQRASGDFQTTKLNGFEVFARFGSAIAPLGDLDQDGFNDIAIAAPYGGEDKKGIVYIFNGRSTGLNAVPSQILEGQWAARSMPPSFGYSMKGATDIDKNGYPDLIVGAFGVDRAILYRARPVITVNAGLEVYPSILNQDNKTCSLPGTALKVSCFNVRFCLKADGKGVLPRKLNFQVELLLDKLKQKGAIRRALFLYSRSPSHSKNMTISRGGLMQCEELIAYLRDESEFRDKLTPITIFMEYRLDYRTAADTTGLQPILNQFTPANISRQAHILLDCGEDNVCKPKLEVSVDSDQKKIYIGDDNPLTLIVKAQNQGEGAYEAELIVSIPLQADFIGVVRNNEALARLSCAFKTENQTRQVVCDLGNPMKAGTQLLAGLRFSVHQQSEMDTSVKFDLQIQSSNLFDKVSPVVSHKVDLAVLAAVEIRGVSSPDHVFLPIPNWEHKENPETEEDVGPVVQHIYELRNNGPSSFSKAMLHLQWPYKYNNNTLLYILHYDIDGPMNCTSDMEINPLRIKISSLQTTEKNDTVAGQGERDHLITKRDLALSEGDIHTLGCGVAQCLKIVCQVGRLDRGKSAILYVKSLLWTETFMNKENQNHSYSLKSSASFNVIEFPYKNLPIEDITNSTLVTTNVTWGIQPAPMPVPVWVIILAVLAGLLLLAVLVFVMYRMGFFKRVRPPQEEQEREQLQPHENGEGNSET
T1 sequence (P05106 27-788, chain 2 of 2): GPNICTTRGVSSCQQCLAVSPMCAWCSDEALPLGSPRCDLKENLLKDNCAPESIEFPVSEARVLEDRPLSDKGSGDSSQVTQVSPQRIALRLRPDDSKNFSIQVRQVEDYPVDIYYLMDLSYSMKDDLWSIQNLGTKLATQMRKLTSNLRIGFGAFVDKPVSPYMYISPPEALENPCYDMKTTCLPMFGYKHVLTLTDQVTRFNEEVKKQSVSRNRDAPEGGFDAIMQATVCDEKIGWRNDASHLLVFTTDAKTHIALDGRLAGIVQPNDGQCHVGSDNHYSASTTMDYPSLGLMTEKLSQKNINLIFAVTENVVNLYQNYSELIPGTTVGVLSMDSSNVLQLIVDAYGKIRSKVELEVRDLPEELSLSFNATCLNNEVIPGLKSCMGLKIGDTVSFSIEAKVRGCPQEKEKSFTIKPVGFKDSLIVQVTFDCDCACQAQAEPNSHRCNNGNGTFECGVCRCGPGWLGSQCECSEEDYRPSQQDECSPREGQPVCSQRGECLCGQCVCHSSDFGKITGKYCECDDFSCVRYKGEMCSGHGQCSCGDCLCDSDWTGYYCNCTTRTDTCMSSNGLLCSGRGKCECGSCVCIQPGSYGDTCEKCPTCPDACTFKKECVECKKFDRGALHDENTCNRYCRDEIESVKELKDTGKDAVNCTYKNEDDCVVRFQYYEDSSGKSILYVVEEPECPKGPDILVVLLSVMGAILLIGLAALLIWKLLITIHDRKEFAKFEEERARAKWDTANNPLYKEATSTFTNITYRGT
Chain of melanocortin-1 receptor (MC1R) on murine B16/F1 and B16F10 melanoma cells (mouse) (Q01727 whole entry, one chain of several): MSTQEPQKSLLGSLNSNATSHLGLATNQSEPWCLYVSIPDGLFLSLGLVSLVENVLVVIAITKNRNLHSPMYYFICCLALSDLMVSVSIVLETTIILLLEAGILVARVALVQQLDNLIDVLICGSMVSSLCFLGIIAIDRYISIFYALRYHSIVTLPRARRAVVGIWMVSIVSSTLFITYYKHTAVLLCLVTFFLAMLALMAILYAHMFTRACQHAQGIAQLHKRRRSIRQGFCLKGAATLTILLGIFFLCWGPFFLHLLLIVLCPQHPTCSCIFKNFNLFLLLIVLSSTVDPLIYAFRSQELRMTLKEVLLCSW
Chain of melanocortin-1 receptor (MC1R) on human M21 melanoma cells (human) (Q01726 whole entry): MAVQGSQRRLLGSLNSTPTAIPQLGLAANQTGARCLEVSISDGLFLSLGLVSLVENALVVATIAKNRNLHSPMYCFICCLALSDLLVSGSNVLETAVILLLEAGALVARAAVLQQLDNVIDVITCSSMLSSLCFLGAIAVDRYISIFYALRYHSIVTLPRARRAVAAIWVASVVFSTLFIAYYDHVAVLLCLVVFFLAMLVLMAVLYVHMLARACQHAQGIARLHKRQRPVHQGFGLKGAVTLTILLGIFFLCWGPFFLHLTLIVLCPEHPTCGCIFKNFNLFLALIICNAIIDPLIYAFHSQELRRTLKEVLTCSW

B1: ^124I-cRGDY-PEG-dots (radioiodinated, cRGDY peptide-bearing, PEG-coated Cy5 core-shell silica nanoparticles) (other)
peptide: cyclo(RGD[dY](124I)C([maleimide-PEG-Cy5 silica nanoparticle]))
modifications: not fully specified; reading uncertain; also: Cys linked via maleimide to PEG on Cy5 silica nanoparticle
- IC50 [5]: 1.2 nM
- Kd [6]: 0.51 nM

B2: cRGDY-PEG-dots (non-radiolabeled, cRGDY peptide-bearing, PEG-coated Cy5 core-shell silica nanoparticles) (other)
peptide: cyclo(RGD[dY]C([maleimide-PEG-Cy5 silica nanoparticle]))
modifications: not fully specified; reading uncertain; also: Cys linked via maleimide to PEG on Cy5 silica nanoparticle
- methylene blue uptake (absorbance) of attached M21 cells without particle pre-incubation relative to particle-exposed cells [7]: 2 fold
- multivalent enhancement factor (ratio of the cRGD peptide to cRGDY-PEG-dot IC50 values), anti-adhesion assay, M21 cells on vitronectin-coated plates [7]: > 2 fold

Next, values leading:

- IC50 [1]: 2.1 nM
Molecule: DOTA-ReCCMSH (original ReCCMSH targeting molecule) (peptide)

- IC50 [2]: 0.66 nM
- saturation concentration [3]: 100 nM
- saturation concentration [4]: 100 nM
Molecule: alpha-MSH-PEG-Cy5-C dots (N-Ac-Cys-(Ahx)2-D-Lys-ReCCMSH peptide-bound nanoparticles)
